B1: RGS5_(2-15), synthetic peptide corresponding to the methionine excised N-terminus of RGS5, residues 2 to 15 [human] / 2-aminoethanethiol dioxygenase (ADO), full-length human, N-terminally His-tagged and biotinylated (pQE80L-Navi-ADO) … (parent complex)
chain 1: CKGLAALPHSCLER
chain 2: MPRDNMASLIQRIARQACLTFRGSGGGRGASDRDAASGPEAPMQPGFPENLSKLKSLLTQLRAEDLNIAPRKATLQPLPPNLPPVTYMHIYETDGFSLGVFLLKSGTSIPLHDHPGMHGMLKVLYGTVRISCMDKLDAGGGQRPRALPPEQQFEPPLQPREREAVRPGVLRSRAEYTEASGPCILTPHRDNLHQIDAVEGPAAFLDILAPPYDPDDGRDCHYYRVLEPVRPKEASSSACDLPREVWLLETPQADDFWCEGEPYPGPKVFP

Variants of: B1
Assay: SPR; parent: 1; read off a plot

| Variant | ratio to parent |
| --- | --- |
| chain 2 MPRDNMASLIQRIARQACLTFRGSGGGRGASDRDAASGPEAPMQPGFPENLSKLKSLLTQLRAEDLNIAPRKATLQPLPPNLPPVTYMHIYETDGFSLGVALLKSGTSIPLHDHPGMHGMLKVLYGTVRISCMDKLDAGGGQRPRALPPEQQFEPPLQPREREAVRPGVLRSRAEYTEASGPCILTPHRDNLHQIDAVEGPAAFLDILAPPYDPDDGRDCHYYRVLEPVRPKEASSSACDLPREVWLLETPQADDFWCEGEPYPGPKVFP [chain 2 F101A] | ~74 |
| chain 2 MPRDNMASLIQRIARQACLTFRGSGGGRGASDRDAASGPEAPMQPGFPENLSKLKSLLTQLRAEDLNIAPRKATLQPLPPNLPPVTAMHIYETDGFSLGVFLLKSGTSIPLHDHPGMHGMLKVLYGTVRISCMDKLDAGGGQRPRALPPEQQFEPPLQPREREAVRPGVLRSRAEYTEASGPCILTPHRDNLHQIDAVEGPAAFLDILAPPYDPDDGRDCHYYRVLEPVRPKEASSSACDLPREVWLLETPQADDFWCEGEPYPGPKVFP [chain 2 Y87A] | ~9 |

Reference: paper PMC12098869, “An mRNA-display derived cyclic peptide scaffold reveals the substrate binding interactions of an N-terminal cysteine oxidase” (Nature Communications, 2025)
